Laboratory results published in paper PMC7093966.

Biological target: FITC-Aβ42 (UniProt P05067)
Assay: solid-phase fluorescence binding assay (FITC-peptide on coated plate); black 96-well plates coated with 50 μg/mL rat-tail collagen-I or 10% BSA; 1 μM FITC-Aβ42 in RPMI with or without 200 μg/mL HDL (total, apoE-depleted or apoE-enriched) or BSA; 24 h at 37 °C, 5% CO2; PBS washes; excitation 490 nm, emission 520 nm

High density lipoprotein (HDL), density 1.063-1.21 g/mL, sequence (P02649 whole entry, looked up): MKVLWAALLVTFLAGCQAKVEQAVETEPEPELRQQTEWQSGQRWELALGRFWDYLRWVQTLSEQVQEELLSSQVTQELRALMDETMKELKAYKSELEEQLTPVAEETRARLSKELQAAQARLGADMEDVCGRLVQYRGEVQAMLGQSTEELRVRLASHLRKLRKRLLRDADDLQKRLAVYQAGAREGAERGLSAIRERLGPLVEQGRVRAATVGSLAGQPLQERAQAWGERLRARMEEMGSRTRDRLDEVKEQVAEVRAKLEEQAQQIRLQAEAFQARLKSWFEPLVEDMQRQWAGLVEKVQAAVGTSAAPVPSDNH
High density lipoprotein (HDL), density 1.063-1.21 g/mL, sequence (P02652 whole entry, looked up): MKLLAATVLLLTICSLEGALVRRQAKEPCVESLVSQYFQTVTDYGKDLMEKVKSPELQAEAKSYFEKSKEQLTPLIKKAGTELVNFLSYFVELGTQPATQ
High density lipoprotein (HDL), density 1.063-1.21 g/mL, sequence (P02647 whole entry, looked up): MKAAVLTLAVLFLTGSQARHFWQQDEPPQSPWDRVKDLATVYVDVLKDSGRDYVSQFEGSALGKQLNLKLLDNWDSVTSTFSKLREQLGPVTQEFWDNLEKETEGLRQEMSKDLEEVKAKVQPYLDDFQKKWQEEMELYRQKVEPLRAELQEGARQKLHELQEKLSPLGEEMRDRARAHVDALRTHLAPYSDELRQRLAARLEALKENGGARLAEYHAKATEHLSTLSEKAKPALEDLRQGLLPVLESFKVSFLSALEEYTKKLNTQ
FITC-Aβ42, sequence (P05067 672-713): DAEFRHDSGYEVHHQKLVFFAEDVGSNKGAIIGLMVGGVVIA

fold reduction of Aβ42 binding to BSA: 11.8 fold
fold reduction of Aβ42 binding to collagen-I: 7 fold
Substance: High density lipoprotein (HDL), density 1.063-1.21 g/mL (from UniProt P02647 19-267; P02652 19-100; P02649 19-317) (complex)
